Key:
[1] = biological target: the molecule itself; assay: native gel or EMSA; blue native PAGE (Novex 4-16% BisTris) of membranes solubilized with 1.5% dodecylmaltoside, without KefF; western blot with anti-His6; factor 1.8 for true mass:mobility-based mass
[2] = biological target: the molecule itself; assay: SEC-MALS; size exclusion chromatography with in-line MiniDAWN TREOS light scattering and refractive index detection; 50 mM HEPES pH 7.5, 150 mM KCl, 1 mM DTT or TCEP; with and without GSH, S-lactoyl-GSH or N-ethylsuccinimido-S-glutathione and NAD+ or NADH (1 mM)

B1: full-length recombinant KefC (natural protein, E. coli, UniProt P03819 1-620, looked up)
chain: MDSHTLIQALIYLGSAALIVPIAVRLGLGSVLGYLIAGCIIGPWGLRLVTDAESILHFAEIGVVLMLFIIGLELDPQRLWKLRAAVFGCGALQMVICGGLLGLFCMLLGLRWQVAELIGMTLALSSTAIAMQAMNERNLMVTQMGRSAFAVLLFQDIAAIPLVAMIPLLATSSASTTMGAFALSALKVAGALVLVVLLGRYVTRPALRFVARSGLREVFSAVALFLVFGFGLLLEEVGLSMAMGAFLAGVLLASSEYRHALESDIEPFKGLLLGLFFIGVGMSIDFGTLLENPLRIVILLLGFLIIKIAMLWLIARPLQVPNKQRRWFAVLLGQGSEFAFVVFGAAQMANVLEPEWAKSLTLAVALSMAATPILLVILNRLEQSSTEEAREADEIDEEQPRVIIAGFGRFGQITGRLLLSSGVKMVVLDHDPDHIETLRKFGMKVFYGDATRMDLLESAGAAKAEVLINAIDDPQTNLQLTEMVKEHFPHLQIIARARDVDHYIRLRQAGVEKPERETFEGALKTGRLALESLGLGPYEARERADVFRRFNIQMVEEMAMVENDTKARAAVYKRTSAMLSEIITEDREHLSLIQRHGWQGTEEGKHTGNMADEPETKPSS
notes: E. coli KefC glutathione-gated K+ efflux system, full length; Blue native PAGE was done without KefF; Also used here as the wild-type KefC of the efflux experiments (plasmids pSM12 and pKefFKefCHis6 in E. coli MJF335); also called whole KefC channels; source: E. coli, overexpressed, bacterial membranes solubilized with 1.5% dodecylmaltoside
stoichiometry N [1]: 2

B2: KefC-CTD:KefF fusion protein (complex, E. coli)
chain: RVIIAGFGRFGQITGRLLLSSGVKMVVLDHDPDHIETLRKFGMKVFYGDATRMDLLESAGAAKAEVLINAIDDPQTNLQLTEMVKEHFPHLQIIARARDVDHYIRLRQAGVEKPERETFEGALKTGRLALESLGLGPYEARERADVFRRFNIQMVEEMAMVENDTKARAAVYKRTSAMLSEIITEDREHLSLIQRHGWQGTEEGKHTGNMADEPETKPSSTSGGLVPRGSSGMILIIYAHPYPHHSHANKRMLEQARTLEGVEIRSLYQLYPDFNIDIAAEQEALSRADLIVWQHPMQWYSIPPLLKLWIDKVFSHGWAYGHGGTALHGKHLLWAVTTGGGESHFEIGAHPGFDVLSQPLQATAIYCGLNWLPPFAMHCTFICDDETLEGQARHYKQRLLEWQEAHHG
notes: synthetic flexible 12-residue linker with a thrombin motif that is not cleaved under the conditions used; KefF, ancillary subunit of the E. coli KefC system, full length; pET-28-derived vector; tag removed with thrombin overnight at 4 °C; also called KefC-CTD/KefF complex; fusion complex; source: E. coli BL21(DE3), purified (Ni-NTA with imidazole gradient, Superdex 200 gel filtration); not shown: …
stoichiometry N [2]: 2

From publication PMC2920069, “KTN (RCK) Domains Regulate K^+ Channels and Transporters by Controlling the Dimer-Hinge Conformation” (Structure(London, England:1993), 2009)
